Results: US7563760 (GENETICS INSTITUTE, dated 2009)
No end group written: not given here.

How the values were obtained:
[1] = molecular target: T1, E-selectin expressed on CHO cells (CHO:E-selectin) (UniProt P16581 22-610, limits assumed); assay: plate coated with chimera; adhesion of CHO:E-selectin cells (FIG. 17)
T1 construct: whole, on cells; also called E-selectin expressing CHO cells; CHO cells which express E-selectin
T1 sequence (looked up): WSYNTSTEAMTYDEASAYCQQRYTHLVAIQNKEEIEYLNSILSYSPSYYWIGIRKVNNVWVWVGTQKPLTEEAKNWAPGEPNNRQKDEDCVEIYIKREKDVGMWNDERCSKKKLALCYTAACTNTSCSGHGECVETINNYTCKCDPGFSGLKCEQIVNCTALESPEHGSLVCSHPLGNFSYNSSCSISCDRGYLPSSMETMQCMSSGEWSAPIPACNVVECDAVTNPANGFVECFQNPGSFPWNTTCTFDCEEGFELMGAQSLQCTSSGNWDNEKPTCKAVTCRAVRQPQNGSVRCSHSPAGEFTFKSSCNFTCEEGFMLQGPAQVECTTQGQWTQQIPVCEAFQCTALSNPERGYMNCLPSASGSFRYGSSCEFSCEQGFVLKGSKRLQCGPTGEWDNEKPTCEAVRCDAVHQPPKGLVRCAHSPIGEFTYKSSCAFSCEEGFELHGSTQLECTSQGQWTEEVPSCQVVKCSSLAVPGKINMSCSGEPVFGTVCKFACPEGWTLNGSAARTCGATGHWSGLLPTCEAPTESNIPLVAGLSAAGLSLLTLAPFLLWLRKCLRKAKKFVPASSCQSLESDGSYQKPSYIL
Procedure: (§1) Quantitative adhesion of CHO:P-selectin, CHO:E-selectin and CHO:L-selectin expressing cells was performed as described in Example 4(c), with the following modifications: COS cell and antibodies were omitted. Instead, 48-well microtiter plates (Costar) were coated for 16 hours at 4° C. with varying quantities of protein A-purified soluble PSGL-1/Fc chimeras. The unbound material was removed and the coated wells were treated with Hank's buffered saline (HBS) with 1 mg/ml BSA and 2 mM CaCl_2 for 1 hour at 4° C. Tritium labeled CHO selectin expressing cells were added and binding quantitated as described in Example 4(c).

[2] = molecular target: T2, P-selectin expressed on the surface of CHO cells (CHO:P-selectin cell line) (UniProt P16109 42-830, limits assumed); assay: plate coated with chimera; adhesion of CHO:P-selectin cells (FIG. 17)
T2 construct: whole, on cells; also called P-selectin expressing CHO cells
T2 sequence (looked up): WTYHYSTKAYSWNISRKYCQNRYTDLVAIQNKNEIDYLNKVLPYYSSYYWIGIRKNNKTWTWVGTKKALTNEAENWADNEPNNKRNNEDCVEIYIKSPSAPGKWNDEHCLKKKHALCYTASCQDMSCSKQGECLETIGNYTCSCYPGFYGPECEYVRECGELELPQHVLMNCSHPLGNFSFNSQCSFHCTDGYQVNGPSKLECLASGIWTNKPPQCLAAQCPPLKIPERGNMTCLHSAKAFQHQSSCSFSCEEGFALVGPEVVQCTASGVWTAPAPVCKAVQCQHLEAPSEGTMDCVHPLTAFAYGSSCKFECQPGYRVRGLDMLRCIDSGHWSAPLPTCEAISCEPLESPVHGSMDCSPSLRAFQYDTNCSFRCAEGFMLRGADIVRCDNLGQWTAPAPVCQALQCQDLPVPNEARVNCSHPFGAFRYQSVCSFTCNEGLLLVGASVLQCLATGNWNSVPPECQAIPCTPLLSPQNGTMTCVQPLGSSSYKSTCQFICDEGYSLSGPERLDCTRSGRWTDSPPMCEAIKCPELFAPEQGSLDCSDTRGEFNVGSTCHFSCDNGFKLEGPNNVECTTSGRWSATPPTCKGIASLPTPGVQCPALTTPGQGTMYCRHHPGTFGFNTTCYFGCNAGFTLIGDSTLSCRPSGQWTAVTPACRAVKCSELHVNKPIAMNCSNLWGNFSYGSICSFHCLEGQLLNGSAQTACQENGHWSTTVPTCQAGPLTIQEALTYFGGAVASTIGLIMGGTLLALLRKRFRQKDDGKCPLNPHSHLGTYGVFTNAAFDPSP
Procedure: as §1

[3] = molecular target: T3, E-selectin/IgG chimera of Example 9 (human) (UniProt P16581); assay: affinity capture on E-selectin/IgG chimera protein A sepharose, EDTA elution, scintillation counting
T3 sequence (looked up): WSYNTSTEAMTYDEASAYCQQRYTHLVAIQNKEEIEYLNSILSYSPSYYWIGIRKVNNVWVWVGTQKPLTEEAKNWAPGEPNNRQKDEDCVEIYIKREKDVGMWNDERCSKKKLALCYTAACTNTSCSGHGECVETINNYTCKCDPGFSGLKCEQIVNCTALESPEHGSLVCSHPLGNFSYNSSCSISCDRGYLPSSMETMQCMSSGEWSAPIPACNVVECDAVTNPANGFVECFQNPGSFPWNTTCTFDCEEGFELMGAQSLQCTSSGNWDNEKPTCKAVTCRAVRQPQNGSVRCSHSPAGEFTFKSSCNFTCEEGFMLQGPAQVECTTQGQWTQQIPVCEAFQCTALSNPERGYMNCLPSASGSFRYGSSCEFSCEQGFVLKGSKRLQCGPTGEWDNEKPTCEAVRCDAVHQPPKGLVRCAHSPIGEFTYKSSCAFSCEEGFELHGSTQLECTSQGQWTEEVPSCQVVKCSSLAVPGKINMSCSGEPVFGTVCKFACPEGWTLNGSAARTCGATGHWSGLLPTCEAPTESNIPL

[4] = molecular target: T4, LEC-γ1, chimeric form of P-selectin conjugated to the Fc portion of a human IgGγ1 (human, UniProt P16109 42-771); assay: affinity capture on P-selectin/IgG chimera protein A sepharose, EDTA elution, scintillation counting
T4 construct: extracellular domain; Built by known methods (Aruffo et al. 1991), made in CHO DUKX cells; also called P-selectin/IgG chimera; P-selectin/Fc chimera; not shown: Fc portion of a human IgGγ1
T4 sequence (looked up): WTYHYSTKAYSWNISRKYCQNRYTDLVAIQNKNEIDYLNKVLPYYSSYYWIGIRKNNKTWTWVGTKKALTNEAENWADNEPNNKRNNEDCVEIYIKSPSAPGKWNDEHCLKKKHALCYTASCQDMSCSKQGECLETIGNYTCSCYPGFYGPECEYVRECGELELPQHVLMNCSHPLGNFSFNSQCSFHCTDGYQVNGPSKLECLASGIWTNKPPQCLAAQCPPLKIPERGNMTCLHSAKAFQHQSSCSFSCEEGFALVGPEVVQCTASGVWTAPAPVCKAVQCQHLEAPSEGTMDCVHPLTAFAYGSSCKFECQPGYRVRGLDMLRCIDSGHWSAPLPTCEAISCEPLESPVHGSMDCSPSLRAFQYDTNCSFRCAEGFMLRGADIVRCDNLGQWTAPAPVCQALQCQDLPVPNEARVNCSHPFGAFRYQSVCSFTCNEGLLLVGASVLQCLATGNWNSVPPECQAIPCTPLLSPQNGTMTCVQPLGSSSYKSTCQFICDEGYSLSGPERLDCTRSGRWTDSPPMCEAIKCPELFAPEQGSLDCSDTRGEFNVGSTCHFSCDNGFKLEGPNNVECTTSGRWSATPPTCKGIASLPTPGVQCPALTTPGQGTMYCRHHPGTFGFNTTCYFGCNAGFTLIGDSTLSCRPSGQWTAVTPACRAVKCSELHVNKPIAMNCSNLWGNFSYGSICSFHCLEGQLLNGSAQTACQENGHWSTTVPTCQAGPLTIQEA
Procedure: U937 cells (approximately 6.5 ×10^7) were recovered from tissue culture plates and divided equally into two 50 mL cultures (final concentration of […]) containing fresh complete RPMI medium and 50 µCi/ml of ^3H-glucosamine hydrochloride (labels the protein-linked carbohydrate of glycoproteins [Varki, FASEB 5:226-235 (1991)]. After 48 hours incubation, the cells from both cultures were recovered by centrifugation and washed three times with PBS. The pelleted cells were suspended in 2.5 mL each of a lysis buffer containing 1% Triton X-100 and disrupted by probe sonication for two minutes. The detergent lysates were placed on ice for three hours and then resonicated for an additional two minutes. The lysates were centrifuged at 16,000 rpm for five minutes, the supernatants were recovered and each adjusted to 12 mL with lysis buffer containing no detergent. […]
Following incubation, the two parallel reaction mixtures were each centrifuged at 2,000 rpm and supernatants were discarded. […] A final 1 mL pre-elution wash of each resin pellet using buffer containing 0.01% Triton X-100 was conducted and these were retained for quantitation of radioactive counts by liquid scintillation counting (LSC). […] The supernatants were recovered by centrifugation and then quantitated by LSC.

[5] = molecular target: T1, E-selectin expressed on CHO cells …; assay: plate coated with chimera; adhesion of CHO:E-selectin cells (FIG. 20)
Procedure: as §1

[6] = molecular target: T2, P-selectin expressed on the surface of …; assay: plate coated with chimera; adhesion of CHO:P-selectin cells (FIG. 19)
Procedure: as §1

[7] = molecular target: T2, P-selectin expressed on the surface of …; assay: adhesion of 3H-thymidine-labelled CHO:P-selectin cells to transfected COS cells
Procedure: COS cells were co-transfected with the pMT21:PL85 plasmid of Example 1 and the pEA.3/4FT plasmid of Example 2 by the same procedure used in the initial stages of screening. As controls, COS cells were transfected with pMT21:PL85 alone, or with pEA.3/4FT alone, or with a similar plasmid containing no insert ("mock"). 24 hours post-transfection, the transfected cells were trypsinized and distributed into Costar 6-well tissue culture plates. CHO:P-selectin cells were labeled for 16 hours with ^3H-thymidine using known methods and preincubated at 0.5×10^6 cells/ml for 30 minutes at 4° C. in α medium containing 1% BSA (control); α medium containing 1% BSA, 5 mM EDTA and 5 mM EGTA; α medium containing 1% BSA and 10 μg/ml of a neutralizing anti P-selectin monoclonal antibody; and α medium containing 1% BSA and a non-neutralizing anti-P-selectin monoclonal antibody. The preincubated cells were then added to the wells containing the transfected COS cells. After a 10 minute incubation, unbound cells were removed by 4 changes of medium. The bound CHO:P-selectin cells were released by trypsinization and quantified by scintillation counting.
Likewise, incubation with neutralizing anti-P-selectin antibody also eliminated specific binding, whereas non-neutralizing antibody had no effect. […]

B1: 47.Fc of Example 10, amino acids 42-88 of SEQ ID NO:2 fused to IgG Fc (Fc fusion)
chain: QATEYEYLDYDFLPETEPPEMLRNSTDTTPLTGPGTPESTTVEPAAR
modifications: not fully specified (C-terminus); also: glycosylated, co-expressed with 3/4FT, sites not given here
notes: also called pED.47.Fc product; not shown: NotI junction/linker of pED.Fc; Fc region of a human IgG1 from pED.PSL.Fc
Does B1 bind [1]?
Result: binds

Does B1 bind [2]?
Result: binds

B2: native PSGL-1 of U937 cells (major glycoprotein captured from detergent extracts) (ligand, human, UniProt Q14242 42-412, looked up)
chain: QATEYEYLDYDFLPETEPPEMLRNSTDTTPLTGPGTPESTTVEPAARRSTGLDAGGAVTELTTELANMGNLSTDSAAMEIQTTQPAATEAQTTQPVPTEAQTTPLAATEAQTTRLTATEAQTTPLAATEAQTTPPAATEAQTTQPTGLEAQTTAPAAMEAQTTAPAAMEAQTTPPAAMEAQTTQTTAMEAQTTAPEATEAQTTQPTATEAQTTPLAAMEALSTEPSATEALSMEPTTKRGLFIPFSVSSVTHKGIPMAASNLSVNYPVGAPDHISVKQCLLAILILALVATIFFVCTVVLAVRLSRKGHMYPVRNYSPTEMVCISSLLPDGGEGPSATANGGLSKAKSPGLTPEPREDREGDDLTLHSFLP
modifications: native myeloid glycosylation, 3H-glucosamine labelled
notes: 200-220 kD non-reduced, 100-120 kD reduced; also called U937 ligand; major U937 glycoprotein
Which radiolabel in the EDTA eluate relative to the final pre-EDTA wash [3] does the source give for B2 here?
Its radiolabel in the EDTA eluate relative to the final pre-EDTA wash is > 10 fold.

And the “radiolabel in the EDTA eluate relative to the final pre-EDTA wash” value [4]?
Its value is ≥ 10 fold.

B3: H24.Q70.148.Fc (Fc fusion)
chain: QATEYEYLDYDFLPETEPPEMLRHSTDTTPLTGPGTPESTTVEPAARRSTGLDAGGAVTELTTELANMGQLSTDSAAMEIQTTQPAATEAQTTPLAATEAQTTRLTATEAQTTPLAATEAQTTPPAATEAQTTQPTGLEAQTTAPAAM
modifications: glycosylated, co-expressed with 3/4FT
notes: also called pED.H24.Q70.148.Fc product; not shown: NotI junction/linker of pED.Fc; Fc region of a human IgG1
Does B3 bind [5]?
Result: binds

Does B3 bind [6]?
Result: binds

B4: full-length P-selectin ligand protein (PSGL-1, pMT21:PL85) expressed with fucosylation (COS or CHO cells with 3/4FT, or LEC11 cells) (ligand)
chain: QATEYEYLDYDFLPETEPPEMLRNSTDTTPLTGPGTPESTTVEPAARRSTGLDAGGAVTELTTELANMGNLSTDSAAMEIQTTQPAATEAQTTPLAATEAQTTRLTATEAQTTPLAATEAQTTPPAATEAQTTQPTGLEAQTTAPAAMEAQTTAPAAMEAQTTPPAAMEAQTTQTTAMEAQTTAPEATEAQTTQPTATEAQTTPLAAMEALSTEPSATEALSMEPTTKRGLFIPFSVSSVTHKGIPMAASNLSVNYPVGAPDHISVKQCLLAILILALVATIFFVCTVVLAVRLSRKGHMYPVRNYSPTEMVCISSLLPDGGEGPSATANGGLSKAKSPGLTPEPREDREGDDLTLHSFLP
modifications: glycosylated; co-expressed with (α1,3/α1,4) fucosyltransferase (3/4FT) or made in SLex-positive LEC11 cells
notes: Encoded as amino acids 1-402; In blots and immunoprecipitations it stood as a membrane detergent extract; also called PSL; CD-PSGL-1 (R3.4) product
B4 was tested. Which “fold binding of CHO:P-selectin cells relative to COS mock cells” value [7] did it give?
Its value is ~5.4 fold.
